Experimental findings from article doi:10.1101/723213 are described below.

Experiment [1] addresses CENP-A_(101-225)–H4 heterodimer (Drosophila melanogaster), Q9V6Q2. The experiment can be described thus: SEC-MALS. The following applies: remark: other sources report otherwise. In general terms: SEC sorts molecules by how far they enter the pores of the column.
In experiment [2] the target is CENP-A_(144-225)–H4 heterodimer (Drosophila melanogaster), Q9V6Q2. Briefly: SEC-MALS. Particulars: remark: other sources report otherwise.
CENP-A_(144-225)–H4 heterodimer (Drosophila melanogaster), Q9V6Q2, sequence (Q9V6Q2 144-225, one chain of several): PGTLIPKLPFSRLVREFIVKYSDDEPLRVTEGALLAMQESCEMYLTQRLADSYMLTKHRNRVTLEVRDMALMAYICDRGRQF

CENP-A_(101-225)–H4 heterodimer (Drosophila melanogaster), Q9V6Q2, sequence (Q9V6Q2 101-225, one chain of several): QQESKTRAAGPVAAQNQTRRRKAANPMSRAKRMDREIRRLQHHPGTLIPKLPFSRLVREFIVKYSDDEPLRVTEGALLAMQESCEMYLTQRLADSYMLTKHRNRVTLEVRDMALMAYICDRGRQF

B1: His-CAL1_(1-160), Q9VEN2 1-160 (domain or fragment)
chain: MANAVVDEETLEAMVYERSKAWSSKMADFASLEDGMEIDVAEFDNLFHGEDEDPDLDDVAKEAVEDNVPDEAKLEMGHINATSVTELTLILCANEDNEAKAEIEEILNQTVPVVEEHKRKWREAGLDRILDTFDEKQIEHHVGRWMRRHNSVYLEASPPK
Regarding B1, the stoichiometry N (CAL1 per CENP-A/H4 heterodimer) in experiment [1] and in experiment [2] was 1 throughout.
